Experimental data as given in paper PMC9736018.

Biological target: T1, PA3973-His6 (Pseudomonas aeruginosa PAO1161) (UniProt Q9HX43)
T1 sequence: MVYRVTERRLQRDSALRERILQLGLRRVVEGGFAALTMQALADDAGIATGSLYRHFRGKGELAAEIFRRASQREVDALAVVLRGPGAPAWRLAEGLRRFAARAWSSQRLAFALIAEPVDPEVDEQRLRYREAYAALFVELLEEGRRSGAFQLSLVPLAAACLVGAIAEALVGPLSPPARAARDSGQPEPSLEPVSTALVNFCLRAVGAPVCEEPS
Assay: EMSA
Conditions: 10 mM Tris-HCl pH 8.5, 10 mM MgCl2, 100 mM KCl, 0.1 mg/mL BSA; ~100 ng DNA plus ~300 ng NS competitor in 20 uL; 23 C, 30 min; 1.5% agarose, 0.5x TBE, 4 C …

**Q.** How did the binding turn out when “GAGAATTCGCATGCCAATGGCGGCGAGGAAAGCGCCTGCGGCTGGTGCCGTGACAAGTGGGGCATCTCCTGGCAGATCACCCCGCGCGTACTCAGCGAAGCCATCGCCAGCCCCGACCGCGCGGCGGCCAGGCGCGCCTTCGAGGCGATGATGACGATGGGCAGGATCGATATCGCCACCATAGAGAAGGCCTTCAAGGGCTGAACGCCCCAACGCCTTGCAAAGGAGTCACGAAGGATCCGC (double strand) [PA2722p]” was run?
**A.** The binding was “binds”.

**Q.** With “GAGGATCCGGGGCGGGCTCCGGAGGGTGTTCAGCTCCTAGCATAGCGCCCTCGCCTTGCGCCGTTCAGACCTTCGCGCAGCGCCCCTCGCGGCCGCGCGCCAGTTCCCTGTTGTCCTGGTCGTAGAGCTTCGCCCAGGGACGGAAGCCGATGTGCCCGGCCTCCAGGCGGTAGCGCTGGCCGGCGCTGAAGTCCTTGAACTTGAGGTTGAGCTGGCAATCGCGCCAGAGCGGGCTGTCCACGGGGCCGGCATGCGAATTCGC (double strand) [PA0061p]” as the sequence, how does the binding read?
**A.** Its binding is “binds”.

**Q.** “GAGGATCCGTGGGACTCCTTGGGTCGGGCCGGTGGCGAATAGCCAGGGGGACGTCGGGCGCACAAGGTACTGCCAGAAAAACGCTAATGCAAATAATTATCAAATGGATTCAGATATGCGTTTTGTGGCAAAGTTCACCTGTTTTTGCGCGTAGCGCGACCGAACCGGATATGCCCGAGGAACCGTCGATGAGCAGCACTCCCAGCCTTTCCCATTCCCCTGCCGAGCGCATGCGAATTCGC (double strand) [PA4710p]” was tested. Which binding did it give?
**A.** Its binding is “binds more weakly”.

**Q.** Which binding does the source give for “GCGAATTCGCATGCCACCACGGTTGATCCATAGGCTTCGGTCCGCGCTGCGGTGGCGCGGGCGGCGCCCATGATACCGATTCCCCGGGGCGGTGGGGCGCCGCGGAAGGGACGGGCGTAGGAGATTTCATATTTCGCAATGAGGAATCTATTCCCCATTGAGGAATGTTCTGGTGGCGTGATAGCCTGAATGGAAAAGAGAGTCATTCCCATTTGGAGAAGATCCTGGATCCGC (double strand) [PA4156p]” here?
**A.** The binding was “binds more weakly”.

**Q.** Which binding does the source give for “GCGAATTCGCATGCGATGGGCGGGAATTGTTGGTCGATTTATGACTTGTAGTTTCTCTGTCGTATGCCTTCAGAACTTGTTGAAGGCTTTTCGGCTCGATTGCACAATGCCGCGCCAAGGTTCGTTCGCGAATCGCGGTATGTGAGCTAGACCTCCGCAGCCGGTGCGCCATCCGCAGTGCCCCGGACTACTCGACAATCACGCAGGAGATTCGTGAGGATCCGC (double strand) [PA0195p]” here?
**A.** Its binding is “binds”.

**Q.** With “GCGAATTCGCATGCGGCGCTGGAGATTCCCGGCGAGGGCGCGGTGGGCATGTGCTGGCGCGACGAACCGCACCGCGACCGTGCCAGCGAAGACCTGCTGGCCTGCCTGCGCGAAGGCGCGGCGGCCGAGTAGGGCGCCGGCCGGCGGGTGCTATTGCAAAAAGGCCGCGGCTTCTCGACAATGCGATTCATTATCATTCATGTGTCGCCCCGACTTTCCCATGGGATCCGC (double strand) [PA2468p]” as the sequence, how does the binding read?
**A.** Its binding is “binds more weakly”.
